Measurements reported in PMC6355003.

B1: Drp1 (dynamin-related protein Drp1), wild type [not stated] / GST-MiD51^133-463, wild type [human] (parent)
chain 1: MEALIPVINKLQDVFNTVGADIIQLPQIVVVGTQSSGKSSVLESLVGRDLLPRGTGIVTRRPLILQLVHVSQEDKRKTTGEENGVEAEEWGKFLHTKNKLYTDFDEIRQEIENETERISGNNKGVSPEPIHLKIFSPNVVNLTLVDLPGMTKVPVGDQPKDIELQIRELILRFISNPNSIILAVTAANTDMATSEALKISREVDPDGRRTLAVITKLDLMDAGTDAMDVLMGRVIPVKLGIIGVVNRSQLDINNKKSVTDSIRDEYAFLQKKYPSLANRNGTKYLARTLNRLLMHHIRDCLPELKTRINVLAAQYQSLLNSYGEPVDDKSATLLQLITKFATEYCNTIEGTAKYIETSELCGGARICYIFHETFGRTLESVDPLGGLNTIDILTAIRNATGPRPALFVPEVSFELLVKRQIKRLEEPSLRCVELVHEEMQRIIQHCSNYSTQELLRFPKLHDAIVEVVTCLLRKRLPVTNEMVHNLVAIELAYINTKHPDFADACGLMNNNIEEQRRNRLARELPSAVSRDKVASGGGGVGDGVQEPTTGNWRGMLKTSKAEELLAEEKSKPIPIMPASPQKGHAVNLLDVPVPVARKLSAREQRDCEVIERLIKSYFLIVRKNIQDSVPKAVMHFLVNHVKDTLQSELVGQLYKSSLLDDLLTESEDMAQRRKEAADMLKALQGASQIIAEIRETHLW
chain 2: MSLQEKLLTYYRNRAAIPAGEQARAKQAAVDICAELRSFLRAKLPDMPLRDMYLSGSLYDDLQVVTADHIQLIVPLVLEQNLWSCIPGEDTIMNVPGFFLVRRENPEYFPRGSSYWDRCVVGGYLSPKTVADTFEKVVAGSINWPAIGSLLDYVIRPAPPPEALTLEVQYERDKHLFIDFLPSVTLGDTVLVAKPHRLAQYDNLWRLSLRPAETARLRALDQADSGCRSLCLKILKAICKSTPALGHLTASQLTNVILHLAQEEADWSPDMLADRFLQALRGLISYLEAGVLPSALNPKVNLFAELTPEEIDELGYTLYCSLSEPEVLLQT

Variants of: B1
Test: GST pull-down, SDS-PAGE band quantification
Settings: with GST-MiD51^133-463, wild type [human], read off a plot
[1] = Apo (no nucleotide), parent: 0.15

| response (1 mM GDP-AlFx, parent: 0.085) [molar ratio] | response (1 mM GDP, parent: 0.14) [molar ratio] | response (1 mM GMP-PNP, parent: 0.69) [molar ratio] | response (1 mM GTP, parent: 0.37) [molar ratio] | response [1] [molar ratio] | response (parent: 0.15) [molar ratio] | Variant |
| --- | --- | --- | --- | --- | --- | --- |
| 0.34 | 0.36 | 0.43 | 0.4 | 0.36 | 0.36 | chain 1 K38A |
| 0.05 | 0.05 | 0.065 | 0.06 | 0.07 |  | chain 1 G401A P402A R403A P404A |
